Measurements: patent US6617497B1, “Cytokinin oxidase” (The Curators of the University of Missouri, priority 1997, dated 2003)

Target: T1, cytokinin oxidase activity (Zea mays, UniProt Q9T0N8)
T1 construct: The exon fusion (containing ckx1 and including its putative signal peptide) was ligated into the Pml1/BsmB1 restriction sites of pPICZ-A; made in house; host or cells: Pichia pastoris X33 (transformant PPckx1, plasmid pROM24); activity measured in the culture supernatant
Assay: Cytokinin oxidase activity of ckx1 expressed in Pichia pastoris
Assay type: biochemical
Text: Two assays were used to screen purification steps for cytokinin oxidase activity. The first was the Schiff base formation assay measuring the production of dimethylallylaldehyde from iP, as described by Liberos-Minotta (1995), which was used up through the DEAE column step. A second assay, developed by the applicant, was used in the remaining purification steps. In this assay, the transfer of reducing equivalents from isopentenyladenine to dichlorophenolindophenol (DCPIP), catalyzed by ckx1, allows the observance of reactivity by measuring absorbance change at 590 nm. In a final volume of 250 μl, the assay contains: 100 mM Phosphate buffer, pH 7.0; 1.0 mM EDTA; 0.05 mM DCPIP; 0.1 mM iP; 100 μg/ml BSA; and the sample tested. After the addition of the enzyme, absorbance change is read at 590 nm for 10 minutes.
Removal of the right-most intron was accomplished by splicing by overlap extension (Horton et al., 1989) and for the left-most intron by ligation of suitable restriction fragments. The resulting intronless cassette was inserted into the Pichia expression vector pPICZ-A to give the expression construct pROM24 (FIG. 9). This construct was introduced into the requisite Pichia host and grown in the presence of methanol to induce ckx1 expression. Appropriate control Pichia lines (containing. the vector alone or a recombinant expressing human serum albumin) were grown in parallel. […]

T1 sequence (Q9T0N8 19-534): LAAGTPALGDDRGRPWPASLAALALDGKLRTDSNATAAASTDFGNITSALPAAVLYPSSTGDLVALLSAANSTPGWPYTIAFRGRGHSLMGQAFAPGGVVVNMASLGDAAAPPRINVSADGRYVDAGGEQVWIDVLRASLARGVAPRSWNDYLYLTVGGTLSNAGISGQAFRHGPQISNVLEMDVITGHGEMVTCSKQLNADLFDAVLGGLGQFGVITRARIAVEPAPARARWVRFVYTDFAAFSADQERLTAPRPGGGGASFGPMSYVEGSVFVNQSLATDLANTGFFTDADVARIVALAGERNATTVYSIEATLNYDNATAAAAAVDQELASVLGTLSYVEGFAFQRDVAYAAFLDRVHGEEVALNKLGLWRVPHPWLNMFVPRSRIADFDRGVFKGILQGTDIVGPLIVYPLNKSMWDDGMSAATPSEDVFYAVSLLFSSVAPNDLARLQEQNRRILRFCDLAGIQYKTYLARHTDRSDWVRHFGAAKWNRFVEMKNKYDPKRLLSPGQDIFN

B1: ckx1: purified plant cytokinin oxidizing enzyme from Zea mays (SEQ. ID NO. 1); here expressed recombinantly in Pichia pastoris (protein)
chain: MAVVYYLLLAGLIACSHALAAGTPALGDDRGRPWPASLAALALDGKLRTDSNATAAASTDFGNITSALPAAVLYPSSTGDLVALLSAANSTPGWPYTIAFRGRGHSLMGQAFAPGGVVVNMASLGDAAAPPGINVSADGRYVDAGGEQVWIDVLRASLARGVAPRSWNDYLYLTVGGTLSNAGISGQAFRHGPQISNVLEMDVITGHGEMVTCSKQLNADLFDAVLGGLGQFGVITRARIAVEPAPARARWVRFVYTDFAAFSADQERLTAPRPGGGGASFGPMSYVEGSVFVNQSLATDLANTGFFTDADVARIVALAGERNATTVYSIEATLNYDNATAAAAAVDQELASVLGTLSYVEGFAFQRDVAYAAFLDRVHGEEVALNKLGLWRVPHPWLNMFVPRSRIADFDRGVFKGILQGTDIVGPLIVYPLNKSMWDDGMSAATPSEDVFYAVSLLFSSVAPNDLARLQEQNRRILRFCDLAGIQYKTYLARHTDRSDWVRHFGAAKWNRFVEMKNKYDPKRLLSPGQDIFN
modifications: Zea mays
notes: here expressed recombinantly in Pichia pastoris
In the case of B1, the “cytokinin oxidase activity in cell lysates” value (Pichia cell lysates, at any time during the growth curve) is reported as “No cytokinin oxidase activity” and the “cytokinin oxidase activity in growth medium” value (Pichia culture supernatant, methanol induction) is reported as “high levels of cytokinin oxidase activity”.
